{"source": "paper PMC12684077", "biological_target": "RSV prefusion F (PR-DM) (respiratory syncytial virus A) (UniProt P03420)", "test": "cryo-EM structure"}
{"substance": "RSV prefusion F (PR-DM) (from UniProt P03420) (complex)", "values": [{"measurement": "stoichiometry N", "result": 3}]}
